Assay results reported in patent publication US20250075002A1.

Tests used:
[1] = target: MUC1 as expressed on normal activated human T cells (human) (UniProt P15941); assay: FACS, PHA-L-activated human PBMC, live αβTCR+ gate, Donor 191180405C; antibody 10 µg/mL by paragraph 182
[2] = target: MUC1 as expressed on normal activated human T cells (human) (UniProt P15941); assay: FACS, PHA-L-activated human PBMC, live αβTCR+ gate, Donor 3009223; antibody 10 µg/mL by paragraph 182
[3] = target: MUC1 as expressed on normal activated human T cells (human) (UniProt P15941); assay: FACS, PHA-L-activated human PBMC, live αβTCR+ gate, Donor 3011029; antibody 10 µg/mL by paragraph 182
[4] = target: MUC1 as expressed on normal activated human T cells (human) (UniProt P15941); assay: FACS, PHA-L-activated human PBMC, live αβTCR+ gate, Donor 190980805C; antibody 10 µg/mL by paragraph 182
[5] = target: MUC1 as expressed on normal activated human T cells (human) (UniProt P15941); assay: FACS, PHA-L-activated human PBMC, live αβTCR+ gate, Donor 191180405C; concentration of the isotype control not told
[6] = target: MUC1 as expressed on normal activated human T cells (human) (UniProt P15941); assay: FACS, PHA-L-activated human PBMC, live αβTCR+ gate, Donor 191271003C; concentration of the isotype control not told
[7] = target: MUC1 as expressed on normal activated human T cells (human) (UniProt P15941); assay: FACS, PHA-L-activated human PBMC, live αβTCR+ gate, Donor 191271715C; concentration of the isotype control not told
[8] = target: MUC1 as expressed on normal activated human T cells (human) (UniProt P15941); assay: FACS, PHA-L-activated human PBMC, live αβTCR+ gate, Donor 190980805C; concentration of the isotype control not told
[9] = target: MUC1 as expressed on normal activated human T cells (human) (UniProt P15941); assay: FACS, PHA-L-activated human PBMC, live αβTCR+ gate, Donor 3011029; concentration of the isotype control not told
[10] = target: MUC1 as expressed on normal activated human T cells (human) (UniProt P15941); assay: FACS, PHA-L-activated human PBMC, live αβTCR+ gate, Donor 190980805C; concentration of the isotype control not told; remark: listed apart in the source
[11] = target: MUC1 as expressed on normal activated human T cells (human) (UniProt P15941); assay: FACS, PHA-L-activated human PBMC, live αβTCR+ gate, Donor 191271003C; concentration of the isotype control not told; remark: listed apart in the source
[12] = target: MUC1 as expressed on normal activated human T cells (human) (UniProt P15941); assay: FACS, PHA-L-activated human PBMC, live αβTCR+ gate, Donor 191180405C; concentration of the isotype control not told; remark: listed apart in the source
[13] = target: MUC1 as expressed on normal activated human T cells (human) (UniProt P15941); assay: FACS, PHA-L-activated human PBMC, live αβTCR+ gate, Donor 3009223; concentration of the isotype control not told
[14] = target: MUC1 as expressed on normal activated human T cells (human) (UniProt P15941); assay: FACS, PHA-L-activated human PBMC, live αβTCR+ gate, Donor 3011029; concentration of the isotype control not told; remark: listed apart in the source
[15] = target: MUC1 as expressed on normal activated human T cells (human) (UniProt P15941); assay: FACS, PHA-L-activated human PBMC, live αβTCR+ gate, Donor 191271715C; concentration of the isotype control not told; remark: listed apart in the source
[16] = target: MUC1 as expressed on normal activated human T cells (human) (UniProt P15941); assay: FACS, PHA-L-activated human PBMC, live αβTCR+ gate, Donor 3009223; concentration of the isotype control not told; remark: listed apart in the source
[17] = target: MUC1 as expressed on normal activated human T cells (human) (UniProt P15941); assay: FACS, PHA-L-activated human PBMC, live αβTCR+ gate, Donor 191271003C; antibody 10 µg/mL by paragraph 182
[18] = target: MUC1 as expressed on normal activated human T cells (human) (UniProt P15941); assay: FACS, PHA-L-activated human PBMC, live αβTCR+ gate, Donor 191271715C; antibody 10 µg/mL by paragraph 182
[19] = target: human CD16B (NA1) on NK92mi cells (human) (UniProt O75015); assay: flow cytometry on NK92mi/CD16B (NA1) cells; control
Sequence of human CD16B (NA1) on NK92mi cells (human) (O75015 other isoform, or with tags, fused parts or gaps limits assumed): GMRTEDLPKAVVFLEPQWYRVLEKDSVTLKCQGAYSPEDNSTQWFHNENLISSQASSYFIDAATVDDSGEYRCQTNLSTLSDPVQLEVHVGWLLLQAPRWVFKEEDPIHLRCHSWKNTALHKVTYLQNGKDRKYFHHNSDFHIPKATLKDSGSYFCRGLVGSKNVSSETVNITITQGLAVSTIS

[20] = target: human CD16B (NA2) on NK92mi cells (human) (UniProt O75015); assay: flow cytometry on NK92mi/CD16B (NA2) cells; control
Sequence of human CD16B (NA2) on NK92mi cells (human) (O75015 17-200 N65S limits assumed): as the sequence (O75015 other isoform, or with tags, fused parts or gaps limits assumed) above, with R20S, N49S, D66N, V90I counted along it

[21] = target: human CD16A (V158) on NK92mi cells (human) (UniProt P08637); assay: flow cytometry on NK92mi/CD16A cells (V158 by paragraph 201); control
Sequence of human CD16A (V158) on NK92mi cells (human) (P08637 17-254 F176V limits assumed): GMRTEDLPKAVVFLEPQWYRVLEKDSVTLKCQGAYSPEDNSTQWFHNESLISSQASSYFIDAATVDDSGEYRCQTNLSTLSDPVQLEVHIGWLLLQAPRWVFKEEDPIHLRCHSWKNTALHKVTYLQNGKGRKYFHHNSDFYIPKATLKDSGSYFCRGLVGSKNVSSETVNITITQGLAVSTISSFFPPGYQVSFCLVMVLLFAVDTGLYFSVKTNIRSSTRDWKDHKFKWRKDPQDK

Sequence of MUC1 as expressed on normal activated human T cells (human) (P15941 24-1255): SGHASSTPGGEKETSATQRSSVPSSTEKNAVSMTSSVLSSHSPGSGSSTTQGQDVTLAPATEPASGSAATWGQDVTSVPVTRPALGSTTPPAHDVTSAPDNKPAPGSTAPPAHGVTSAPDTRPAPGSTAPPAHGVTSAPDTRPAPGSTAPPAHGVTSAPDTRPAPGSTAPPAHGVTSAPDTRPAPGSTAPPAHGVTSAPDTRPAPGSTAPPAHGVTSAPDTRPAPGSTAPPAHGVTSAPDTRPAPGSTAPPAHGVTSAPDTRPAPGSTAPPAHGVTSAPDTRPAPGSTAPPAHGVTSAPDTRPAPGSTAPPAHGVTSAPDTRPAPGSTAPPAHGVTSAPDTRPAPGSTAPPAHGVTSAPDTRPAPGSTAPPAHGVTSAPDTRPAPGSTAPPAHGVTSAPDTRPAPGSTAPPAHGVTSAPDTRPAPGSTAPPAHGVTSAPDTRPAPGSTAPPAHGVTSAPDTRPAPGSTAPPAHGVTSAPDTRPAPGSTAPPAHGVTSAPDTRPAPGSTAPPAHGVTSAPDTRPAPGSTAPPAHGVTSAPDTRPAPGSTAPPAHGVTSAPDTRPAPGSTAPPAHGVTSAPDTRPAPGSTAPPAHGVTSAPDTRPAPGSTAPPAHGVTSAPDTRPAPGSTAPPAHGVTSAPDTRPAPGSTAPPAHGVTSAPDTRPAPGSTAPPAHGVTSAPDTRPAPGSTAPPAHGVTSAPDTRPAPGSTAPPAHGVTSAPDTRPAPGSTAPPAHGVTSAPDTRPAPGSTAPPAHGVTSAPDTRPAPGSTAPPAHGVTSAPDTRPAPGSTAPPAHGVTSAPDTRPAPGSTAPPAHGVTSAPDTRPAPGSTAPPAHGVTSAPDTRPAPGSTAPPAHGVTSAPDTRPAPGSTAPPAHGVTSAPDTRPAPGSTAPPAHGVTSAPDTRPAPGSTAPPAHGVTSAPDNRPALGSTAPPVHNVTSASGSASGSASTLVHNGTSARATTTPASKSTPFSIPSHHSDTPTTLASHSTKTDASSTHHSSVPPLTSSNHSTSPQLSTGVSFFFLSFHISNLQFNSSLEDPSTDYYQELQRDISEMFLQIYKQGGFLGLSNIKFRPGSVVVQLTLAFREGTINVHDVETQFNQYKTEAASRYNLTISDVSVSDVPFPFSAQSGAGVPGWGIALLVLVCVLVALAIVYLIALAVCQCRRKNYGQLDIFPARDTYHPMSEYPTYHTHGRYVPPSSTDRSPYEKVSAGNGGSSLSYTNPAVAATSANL

Work on “HMFG1 (Abcam, cat. #ab215670) (antibody)” yielded a percent of αβTCR+ cells in the MUC1-positive gate (dashed box) [1] of 28.1%, a percent of αβTCR+ cells in the MUC1-positive gate (dashed box) [2] of 10% and a percent of αβTCR+ cells in the MUC1-positive gate (dashed box) [3] of 23.2%. For the same substance, the percent of αβTCR+ cells in the MUC1-positive gate (dashed box) [4] was 28.2%.
Work on Isotype (antibody) yielded a percent of αβTCR+ cells in the MUC1-positive gate (dashed box) [5] of 2.49%, a percent of αβTCR+ cells in the MUC1-positive gate (dashed box) [6] of 0.91% and a percent of αβTCR+ cells in the MUC1-positive gate (dashed box) [7] of 1.04%. The percent of αβTCR+ cells in the MUC1-positive gate (dashed box) [8] was 0.15%, the percent of αβTCR+ cells in the MUC1-positive gate (dashed box) [9] was 0.26% and the percent of αβTCR+ cells in the MUC1-positive gate (dashed box) [10] was 1.86%. It also gave a percent of αβTCR+ cells in the MUC1-positive gate (dashed box) [11] of 0.11%, a percent of αβTCR+ cells in the MUC1-positive gate (dashed box) [12] of 0.29% and a percent of αβTCR+ cells in the MUC1-positive gate (dashed box) [13] of 1.17%. It also gave a percent of αβTCR+ cells in the MUC1-positive gate (dashed box) [14] of 0.36%, a percent of αβTCR+ cells in the MUC1-positive gate (dashed box) [15] of 0.04% and a percent of αβTCR+ cells in the MUC1-positive gate (dashed box) [16] of 0.05%.
With “16A (Biolegend, cat. #355608) (antibody)” the percent of αβTCR+ cells in the MUC1-positive gate (dashed box) [17] was 16.9% and the percent of αβTCR+ cells in the MUC1-positive gate (dashed box) [18] was 16.5%.
Substance “Human IgG (control column of Tables 10-12) (antibody)” has an EC50 [19] of 10.3 µg/mL, an EMAX [19] of 7.46 and an EC50 [20] of 0.314 µg/mL. For the same substance, the EMAX [20] was 7.66, the EC50 [21] was 0.0112 µg/mL and the EMAX [21] was 7.55.
